According to article PMC8326427:

Biological target: T1, rDHX36 (G4R1/RHAU) (UniProt Q9H2U1 1-1008)
T1 sequence: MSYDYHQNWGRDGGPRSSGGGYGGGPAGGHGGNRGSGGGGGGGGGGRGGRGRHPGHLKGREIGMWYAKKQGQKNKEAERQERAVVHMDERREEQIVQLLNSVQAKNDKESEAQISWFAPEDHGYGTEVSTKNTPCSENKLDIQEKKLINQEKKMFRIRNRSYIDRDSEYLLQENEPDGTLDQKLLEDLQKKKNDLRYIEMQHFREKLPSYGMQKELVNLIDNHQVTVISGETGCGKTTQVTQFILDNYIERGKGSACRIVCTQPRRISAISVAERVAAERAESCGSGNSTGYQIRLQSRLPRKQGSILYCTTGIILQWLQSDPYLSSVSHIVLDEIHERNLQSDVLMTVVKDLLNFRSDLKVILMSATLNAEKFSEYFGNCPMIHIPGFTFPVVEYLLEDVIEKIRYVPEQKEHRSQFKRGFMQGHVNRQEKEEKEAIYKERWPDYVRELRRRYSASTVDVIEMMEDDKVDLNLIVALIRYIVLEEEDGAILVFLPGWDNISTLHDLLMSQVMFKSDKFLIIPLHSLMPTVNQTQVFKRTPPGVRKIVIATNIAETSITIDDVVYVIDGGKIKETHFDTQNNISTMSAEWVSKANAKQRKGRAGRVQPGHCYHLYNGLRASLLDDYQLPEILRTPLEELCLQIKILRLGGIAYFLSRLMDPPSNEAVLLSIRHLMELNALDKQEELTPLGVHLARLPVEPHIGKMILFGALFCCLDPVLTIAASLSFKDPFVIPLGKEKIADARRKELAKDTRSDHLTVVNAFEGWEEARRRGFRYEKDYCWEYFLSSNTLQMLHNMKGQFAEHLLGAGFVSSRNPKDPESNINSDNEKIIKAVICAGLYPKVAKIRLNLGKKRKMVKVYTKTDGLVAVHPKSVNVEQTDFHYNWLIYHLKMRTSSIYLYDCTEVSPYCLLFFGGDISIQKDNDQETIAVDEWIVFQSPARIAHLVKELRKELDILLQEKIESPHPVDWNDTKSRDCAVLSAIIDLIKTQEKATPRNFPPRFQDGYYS
Assay: EMSA

GGGGCCGGGGCCGGGGCCGGGGCCGGGGCCGTTAGAATTTTT (structured_DNA) [(G4C2)5-DNA, annealed with KCl (G4)]
binding result: binds
